Laboratory results published in patent US20040259779A1.

Columns and labels:
[1] = target: combination of receptor ALK7 and receptor ActRIIB; test: cell-based or functional assay
[2] = target: combination of receptor ALK4 and receptor ActRIIB; test: cell-based or functional assay

In the case of “Neuronal Survival and Growth Factor 3 (NSG3) (ligand)”, the luciferase activity of the Smad3-specific pCAGA-luc reporter in HepG2 cells co-expressing ALK7, ActRIIB and NsG-3 (basal without NsG-3 approx. 9) (arbitrary units) [1] is reported as 33 and the luciferase activity of the Smad3-specific pCAGA-luc reporter in HepG2 cells co-expressing ALK4, ActRIIB and NsG-3 (basal without NsG-3 approx. 2) (arbitrary units) [2] is reported as 7.
